Patent publication US20180346564A1 (TEIJIN PHARMA, published 2018)

What was measured:
[1] = molecular target: T1, monophosphorylated tau peptide 1×P, TSPRHLSNVS(pS)TGSIDMVDSPC (human, phosphoserine (pS) at peptide position 11 (tau Ser413)); test: SPR Biacore, 1×P peptide immobilized
T1 construct: also called 1xP; 1×P peptide
T1 peptide: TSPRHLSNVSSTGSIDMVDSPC
Description: Antibody binding to immobilized, phosphorylated Tau peptide was measured using a Series S Sensor Chip CM3 (GE Healthcare, BR100536). The chip was activated using an amine coupling kit, then 30 μg/mL phosphorylated Tau peptide (SEQ ID NO:75) in 10 mM sodium acetate, pH 5.0 was injected until 51 RU had been immobilized. The chip was blocked with ethanolamine. A negative control reference surface was prepared similarly, using non-phosphorylated Tau peptide ([…], SEQ ID NO:77). […] Each concentration and several buffer blanks were injected for 3 minutes at a flowrate of 45 μL/minute. The dissociation of the antibody was monitored for 15 minutes. The surface was regenerated with a 30 second injection of 100 mM hydrochloric acid (Fisher Scientific, SA56-1, Waltham, Mass.).
The data were processed and fit using Biacore™ M T200 Evaluation Software version 2.0 or Biacore™ 4000 Evaluation Software version 1.1 (GE Healthcare). The data were “double referenced” by subtracting the response from a negative control flowcell and subtracting the response from a buffer injection or the average response from two buffer injections. The data were then fit with the “1:1 Binding” model to determine the association rate constant, kₐ (M⁻¹s⁻¹, where “M” equals molar and “s” equals seconds) and the dissociation rate constant, kd (s⁻¹). […]

[2] = molecular target: T2, recombinant human phosphorylated Tau protein (80AWB) (human, UniProt P10636-8 1-441, limits assumed, phosphorylated; sites not stated); test: SPR Biacore, phosphorylated Tau protein immobilized
T2 construct: also called Protein Immobilized
Description: Antibody binding to immobilized, phosphorylated Tau protein was measured using Series S Sensor Chips NTA (GE Healthcare, BR100034). The running buffer for the immobilization was 10 mM HEPES, 150 mM […], 0.05% v/v Surfactant P20, pH 7.4 (GE Healthcare, BR100671) and the flow rate was 10 μL/minute. 350 mM EDTA was injected for 1 minute to clean the chip, followed by a 2 minute injection of 0.5 mM NiCl₂ (GE Healthcare, NTA Reagent Kit) to prepare the chip to capture his-tagged protein. The chip was activated according to the manufacturer's instructions using an amine coupling kit (GE Healthcare, BR100633), then 300 nM phosphorylated Tau protein (80AWB) was injected until the desired amount of protein had been immobilized. The chip was blocked with ethanolamine from the amine coupling kit. Each experiment used multiple levels of immobilized phosphorylated Tau protein. The lowest level varied from 54 resonance units (RU) to 452 RU, and the highest level varied from 463 RU to 1020 RU. […] Each concentration and several buffer blanks were injected for 3 minutes at a flowrate of […]. The dissociation of the antibody was monitored for 15 minutes, then the surface was regenerated with a 30 second to 1 minute injection of 100 mM CAPS (Sigma, C6070), 1 M KCl (Sigma, P9541), 1 mM EDTA, 2 mM DTT, pH 10.5. […]

T2 sequence (P10636 other isoform, or with tags, fused parts or gaps limits assumed): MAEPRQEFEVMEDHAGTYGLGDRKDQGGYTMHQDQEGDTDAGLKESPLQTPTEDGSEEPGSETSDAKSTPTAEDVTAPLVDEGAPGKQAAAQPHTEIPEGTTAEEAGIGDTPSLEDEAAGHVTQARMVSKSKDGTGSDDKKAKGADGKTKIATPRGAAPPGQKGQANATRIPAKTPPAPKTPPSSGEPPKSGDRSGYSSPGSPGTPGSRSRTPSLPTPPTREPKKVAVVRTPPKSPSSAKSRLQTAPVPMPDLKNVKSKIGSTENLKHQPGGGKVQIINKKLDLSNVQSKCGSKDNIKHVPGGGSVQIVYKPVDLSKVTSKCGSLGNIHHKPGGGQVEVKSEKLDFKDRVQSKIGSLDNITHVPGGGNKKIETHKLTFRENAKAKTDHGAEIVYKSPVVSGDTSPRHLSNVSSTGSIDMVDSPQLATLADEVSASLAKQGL

B1: Humanized × [MAPT_H] mAb (Ta1505-VL46_G34S/VH11) IgG4 S228P/Kappa (CX) (antibody, V domains shown)
VH: EVQLVESGGGLVQPGGSLRLSCAASGFTFSSFALNWVRQAPGKGLEWVGHIRSKTNNYATFYAASVKDRFTVSRDDSQNTAYLQMNSLKTEDTATYYCVRRGPRDSWFGYWGQGTLVTVSS
VL: DIVMTQSPLSLPVTLGEPASISCRSSQSIVHSNSNTYLEWYLQKPGQSPQLLIYTVSNRFSGVPDRFSGSGSGTDFTLKISRVEAEDLGVYYCFQGSHLPLTFGGGTKVEIKR
notes: also called hu VL46/VH11 G34S IgG4
binding result [1]: no binding (tested: 0.37 nM to 30 nM antibody) | binding result [2]: no binding (tested: 0.37 nM to 30 nM antibody)
